This note sets out measurements from article PMC7616283 (Nature cardiovascular research, 2024).

Where two headings read alike, the source gives them in different places.

The target in experiment [1] is T1, human CCR8 (HA-tagged) on stably transfected HEK293 cells (human, UniProt P51685 1-355). Put plainly: flow cytometry on cells. On the technique in general: In flow cytometry, cells or beads pass a laser one at a time.
Experiment [2] deals with T2, human CCR8 carried on proteoliposomes (human, UniProt P51685 1-355). In words: SPR. (Surface plasmon resonance follows binding to a sensor surface in real time, without labels.)
Experiment [3] addresses T2, human CCR8 carried on proteoliposomes. Put plainly: SPR. This is another data set of the same source.
The target in experiment [4] is T3, human CCR4 carried on liposomes (human, UniProt P51679 1-360).
T3 sequence (looked up): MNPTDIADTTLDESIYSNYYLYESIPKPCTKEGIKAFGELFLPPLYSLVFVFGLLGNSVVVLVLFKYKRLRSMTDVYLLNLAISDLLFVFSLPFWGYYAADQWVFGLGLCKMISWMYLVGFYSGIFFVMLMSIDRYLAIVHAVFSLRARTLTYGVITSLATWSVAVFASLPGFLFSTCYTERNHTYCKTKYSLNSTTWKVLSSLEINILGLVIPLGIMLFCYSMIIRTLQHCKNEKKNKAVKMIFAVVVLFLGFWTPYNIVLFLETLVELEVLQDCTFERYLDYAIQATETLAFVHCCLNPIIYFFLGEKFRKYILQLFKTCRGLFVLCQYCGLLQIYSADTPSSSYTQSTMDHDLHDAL
Put plainly: SPR.

The target in experiment [5] is T1, human CCR8 (HA-tagged) on stably …. Put plainly: flow cytometry on cells. The source holds these as a separate data set.

B1: unlabeled human recombinant CCL1 (ligand, UniProt P22362 24-96, looked up)
chain: KSMQVPFSRCCFSFAEQEIPLRAILCYRNTSSICSNEGLIFKLKRGKEACALDTVGWVQRHRKMLRHCPSKRK
On to B1, for which the IC50 (as a rule, the concentration at which inhibition is half-maximal) in experiment [1] worked out at 0.58 nM.

B2: biotinylated human recombinant CCL17 (ligand, UniProt Q92583 24-94, looked up)
chain: ARGTNVGRECCLEYFKGAIPLRKLKTWYQTSEDCSRDAIVFVTVQGRAICSDPNNKRVKNAVKYLQSLERS
modifications: biotin (biotinylated; site not stated)
Turning to B2, binding in experiment [2] was put at a Kd of 11.7 nM. In experiment [3], the affinity, expressed as Kd, was 1.1 ± 0.4 nM and the koff (as a rule, the rate constant with which the complex falls apart) stood at 0.00042 s⁻¹. In experiment [4], the binding result is on record as “binds”.

B3: unlabeled human recombinant CCL17 (ligand, UniProt Q92583 24-94, looked up)
chain: ARGTNVGRECCLEYFKGAIPLRKLKTWYQTSEDCSRDAIVFVTVQGRAICSDPNNKRVKNAVKYLQSLERS
Consider B3, for which the IC50 came to 9.4 nM in experiment [5] and 4.9 nM in experiment [1].
